Assay results reported in US20150203577A1 (Chugai, published 2015).

Key:
[1] = target: T1, mouse FcγRII extracellular domain, C-terminally His-tagged (mouse, UniProt P08101 30-210); assay: SPR Biacore T200, KD ratio
T1 construct: the whole entry is named; also called mFcγRII; mFcgRII
T1 sequence: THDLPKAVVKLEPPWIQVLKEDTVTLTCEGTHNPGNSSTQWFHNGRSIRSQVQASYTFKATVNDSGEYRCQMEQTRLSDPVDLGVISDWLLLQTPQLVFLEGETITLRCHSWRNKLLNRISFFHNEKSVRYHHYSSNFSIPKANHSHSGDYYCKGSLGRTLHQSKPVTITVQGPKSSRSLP
Method: (§1) Each altered antibody was analyzed for its interaction with each Fcγ receptor prepared above using Biacore T100 (GE Healthcare Japan Corp.), Biacore T200 (GE Healthcare Japan Corp.), Biacore A100, or Biacore 4000. The running buffer used was HBS-EP+ (GE Healthcare Japan Corp.). The assay temperature was set to 25° C. The sensor chips used were chips prepared by immobilizing Protein L (ACTIGEN or BioVision) onto Series S Sensor Chip CM5 (GE Healthcare Japan Corp.) or Series S Sensor Chip CM4 (GE Healthcare Japan Corp.) by the amine coupling method.
(§2) In order to calculate the KD value of each altered antibody for FcγR, kinetic analysis was conducted according to the following method: first, the antibody of interest was captured onto any of these chips and allowed to interact with mFcγR diluted with a running buffer. For the obtained sensorgram, the assay results were globally fit into the 1:1 Langmuir binding model using Biacore Evaluation Software to calculate an association rate constant ka (L/mol/s) and a dissociation rate constant kd (1/s). From these values, the dissociation constant KD (mol/L) was calculated.

[2] = target: T2, mouse FcγRIII extracellular domain, C-terminally His-tagged (mouse, UniProt P08508 31-215); assay: SPR Biacore T200, KD ratio
T2 construct: the whole entry is named; also called mFcγRIII; mFcgRIII
T2 chain: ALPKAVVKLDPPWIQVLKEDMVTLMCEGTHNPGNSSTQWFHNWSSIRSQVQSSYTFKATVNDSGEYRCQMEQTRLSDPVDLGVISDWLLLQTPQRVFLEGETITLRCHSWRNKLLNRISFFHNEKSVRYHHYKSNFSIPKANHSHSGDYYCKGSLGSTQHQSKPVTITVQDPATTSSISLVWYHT
Method: as §1, §2

B1: H237-MB643/MRAL-k0 (antibody, mouse IgG1, kappa)
heavy: QVQLQESGPGLVKPSETLSLTCAVSGHSISHDHAWSWVRQPPGEGLEWIGFISYSGITNYNPSLQGRVTISRDNSKNTLYLQMNSLRAEDTAVYYCARSLARTTAMDYWGEGTLVTVSSAKTTPPSVYPLAPGSAAQTNSMVTLGCLVKGYFPEPVTVTWNSGSLSSGVHTFPAVLQSDLYTLSSSVTVPSSTWPSETVTCNVAHPASSTKVDKKIVPRDCGCKPCICENYEVEYVFIFPPKPKDVLTITLTPKVTCVVVDISKDDPEVQFSWFVDDVEVHTAQTQPREEQFNSTFRSVSELPIMHQDWLNGKEFKCRVNSAAFPAPIEKTISKTKGRPKAPQVYTIPPPKEQMAKDKVSLTCMITDFFPEDITVEWQWNGQPAENYKNTQPIMDTDGSYFVYSKLNVQKSNWEAGNTFTCSVLHEGLHNHHTEKSLSHSPGK
light: not shown
notes: copies: 2 + 2
Q: With B1 as the binder, how does the “relative mFcγRII-binding activity (mIgG1 = 1)” value [1] read?
A: The value was 1.66 fold.

Q: What about the “relative mFcγRIII-binding activity (mIgG1 = 1)” value [2] of the same binder?
A: The value was 0.14 fold.

B2: H237-MB650/MRAL-k0 (antibody, mouse IgG1, kappa)
heavy: QVQLQESGPGLVKPSETLSLTCAVSGHSISHDHAWSWVRQPPGEGLEWIGFISYSGITNYNPSLQGRVTISRDNSKNTLYLQMNSLRAEDTAVYYCARSLARTTAMDYWGEGTLVTVSSAKTTPPSVYPLAPGSAAQTNSMVTLGCLVKGYFPEPVTVTWNSGSLSSGVHTFPAVLQSDLYTLSSSVTVPSSTWPSETVTCNVAHPASSTKVDKKIVPRDCGCKPCICEAYEVEFVFIFPPKPKDVLTITLTPKVTCVVVDISKDDPEVQFSWFVDDVEVHTAQTQPREEQFNSTFRSVSELPIMHQDWLNGKEFKCRVNSAAFPAPIEKTISKTKGRPKAPQVYTIPPPKEQMAKDKVSLTCMITDFFPEDITVEWQWNGQPAENYKNTQPIMDTDGSYFVYSKLNVQKSNWEAGNTFTCSVLHEGLHNHHTEKSLSHSPGK
light: not shown
notes: copies: 2 + 2
Q: How did the “relative mFcγRII-binding activity (mIgG1 = 1)” value [1] turn out when B2 was run?
A: The value was 0.24 fold.

Q: What about the “relative mFcγRIII-binding activity (mIgG1 = 1)” value [2] of the same binder?
A: Its value is 0.05 fold.

B3: H237-MB646/MRAL-k0 (antibody, mouse IgG1, kappa)
heavy: QVQLQESGPGLVKPSETLSLTCAVSGHSISHDHAWSWVRQPPGEGLEWIGFISYSGITNYNPSLQGRVTISRDNSKNTLYLQMNSLRAEDTAVYYCARSLARTTAMDYWGEGTLVTVSSAKTTPPSVYPLAPGSAAQTNSMVTLGCLVKGYFPEPVTVTWNSGSLSSGVHTFPAVLQSDLYTLSSSVTVPSSTWPSETVTCNVAHPASSTKVDKKIVPRDCGCKPCICEPAEVEYVFIFPPKPKDVLTITLTPKVTCVVVDISKDDPEVQFSWFVDDVEVHTAQTQPREEQFNSTFRSVSELPIMHQDWLNGKEFKCRVNSAAFPAPIEKTISKTKGRPKAPQVYTIPPPKEQMAKDKVSLTCMITDFFPEDITVEWQWNGQPAENYKNTQPIMDTDGSYFVYSKLNVQKSNWEAGNTFTCSVLHEGLHNHHTEKSLSHSPGK
light: not shown
notes: copies: 2 + 2
Q: With B3 as the binder, how does the “relative mFcγRII-binding activity (mIgG1 = 1)” value [1] read?
A: Its value is 4.38 fold.

Q: What about the “relative mFcγRIII-binding activity (mIgG1 = 1)” value [2] of the same binder?
A: The value was 0.15 fold.

B4: H237-MB652/MRAL-k0 (antibody, mouse IgG1, kappa)
heavy: QVQLQESGPGLVKPSETLSLTCAVSGHSISHDHAWSWVRQPPGEGLEWIGFISYSGITNYNPSLQGRVTISRDNSKNTLYLQMNSLRAEDTAVYYCARSLARTTAMDYWGEGTLVTVSSAKTTPPSVYPLAPGSAAQTNSMVTLGCLVKGYFPEPVTVTWNSGSLSSGVHTFPAVLQSDLYTLSSSVTVPSSTWPSETVTCNVAHPASSTKVDKKIVPRDCGCKPCICENYEVEFVFIFPPKPKDVLTITLTPKVTCVVVDISKDDPEVQFSWFVDDVEVHTAQTQPREEQFNSTFRSVSELPIMHQDWLNGKEFKCRVNSAAFPAPIEKTISKTKGRPKAPQVYTIPPPKEQMAKDKVSLTCMITDFFPEDITVEWQWNGQPAENYKNTQPIMDTDGSYFVYSKLNVQKSNWEAGNTFTCSVLHEGLHNHHTEKSLSHSPGK
light: not shown
notes: copies: 2 + 2
Q: B4 was tested. Which “relative mFcγRII-binding activity (mIgG1 = 1)” value [1] did it give?
A: Its value is 0.28 fold.

Q: And the “relative mFcγRIII-binding activity (mIgG1 = 1)” value [2]?
A: Its value is 0.06 fold.

B5: H237-MB647/MRAL-k0 (antibody, mouse IgG1, kappa)
heavy: QVQLQESGPGLVKPSETLSLTCAVSGHSISHDHAWSWVRQPPGEGLEWIGFISYSGITNYNPSLQGRVTISRDNSKNTLYLQMNSLRAEDTAVYYCARSLARTTAMDYWGEGTLVTVSSAKTTPPSVYPLAPGSAAQTNSMVTLGCLVKGYFPEPVTVTWNSGSLSSGVHTFPAVLQSDLYTLSSSVTVPSSTWPSETVTCNVAHPASSTKVDKKIVPRDCGCKPCICIPAEVEYVFIFPPKPKDVLTITLTPKVTCVVVDISKDDPEVQFSWFVDDVEVHTAQTQPREEQFNSTFRSVSELPIMHQDWLNGKEFKCRVNSAAFPAPIEKTISKTKGRPKAPQVYTIPPPKEQMAKDKVSLTCMITDFFPEDITVEWQWNGQPAENYKNTQPIMDTDGSYFVYSKLNVQKSNWEAGNTFTCSVLHEGLHNHHTEKSLSHSPGK
light: not shown
notes: copies: 2 + 2
Q: With B5 as the binder, how does the “relative mFcγRII-binding activity (mIgG1 = 1)” value [1] read?
A: The value was 1.05 fold.

Q: What about the “relative mFcγRIII-binding activity (mIgG1 = 1)” value [2] of the same binder?
A: Its value is 0.1 fold.

B6: H237-MB648/MRAL-k0 (antibody, mouse IgG1, kappa)
heavy: QVQLQESGPGLVKPSETLSLTCAVSGHSISHDHAWSWVRQPPGEGLEWIGFISYSGITNYNPSLQGRVTISRDNSKNTLYLQMNSLRAEDTAVYYCARSLARTTAMDYWGEGTLVTVSSAKTTPPSVYPLAPGSAAQTNSMVTLGCLVKGYFPEPVTVTWNSGSLSSGVHTFPAVLQSDLYTLSSSVTVPSSTWPSETVTCNVAHPASSTKVDKKIVPRDCGCKPCICEPNEVEYVFIFPPKPKDVLTITLTPKVTCVVVDISKDDPEVQFSWFVDDVEVHTAQTQPREEQFNSTFRSVSELPIMHQDWLNGKEFKCRVNSAAFPAPIEKTISKTKGRPKAPQVYTIPPPKEQMAKDKVSLTCMITDFFPEDITVEWQWNGQPAENYKNTQPIMDTDGSYFVYSKLNVQKSNWEAGNTFTCSVLHEGLHNHHTEKSLSHSPGK
light: not shown
notes: copies: 2 + 2
Q: How did the “relative mFcγRII-binding activity (mIgG1 = 1)” value [1] turn out when B6 was run?
A: Its value is 10.8 fold.

Q: And the “relative mFcγRIII-binding activity (mIgG1 = 1)” value [2]?
A: The value was 0.64 fold.

B7: H237-MB645/MRAL-k0 (antibody, mouse IgG1, kappa)
heavy: QVQLQESGPGLVKPSETLSLTCAVSGHSISHDHAWSWVRQPPGEGLEWIGFISYSGITNYNPSLQGRVTISRDNSKNTLYLQMNSLRAEDTAVYYCARSLARTTAMDYWGEGTLVTVSSAKTTPPSVYPLAPGSAAQTNSMVTLGCLVKGYFPEPVTVTWNSGSLSSGVHTFPAVLQSDLYTLSSSVTVPSSTWPSETVTCNVAHPASSTKVDKKIVPRDCGCKPCICEVYEVEYVFIFPPKPKDVLTITLTPKVTCVVVDISKDDPEVQFSWFVDDVEVHTAQTQPREEQFNSTFRSVSELPIMHQDWLNGKEFKCRVNSAAFPAPIEKTISKTKGRPKAPQVYTIPPPKEQMAKDKVSLTCMITDFFPEDITVEWQWNGQPAENYKNTQPIMDTDGSYFVYSKLNVQKSNWEAGNTFTCSVLHEGLHNHHTEKSLSHSPGK
light: not shown
notes: copies: 2 + 2
Q: B7 was tested. Which “relative mFcγRII-binding activity (mIgG1 = 1)” value [1] did it give?
A: The value was 1.17 fold.

Q: And the “relative mFcγRIII-binding activity (mIgG1 = 1)” value [2]?
A: Its value is 0.2 fold.

B8: H237-MB651/MRAL-k0 (antibody, mouse IgG1, kappa)
heavy: QVQLQESGPGLVKPSETLSLTCAVSGHSISHDHAWSWVRQPPGEGLEWIGFISYSGITNYNPSLQGRVTISRDNSKNTLYLQMNSLRAEDTAVYYCARSLARTTAMDYWGEGTLVTVSSAKTTPPSVYPLAPGSAAQTNSMVTLGCLVKGYFPEPVTVTWNSGSLSSGVHTFPAVLQSDLYTLSSSVTVPSSTWPSETVTCNVAHPASSTKVDKKIVPRDCGCKPCICEDYEVEFVFIFPPKPKDVLTITLTPKVTCVVVDISKDDPEVQFSWFVDDVEVHTAQTQPREEQFNSTFRSVSELPIMHQDWLNGKEFKCRVNSAAFPAPIEKTISKTKGRPKAPQVYTIPPPKEQMAKDKVSLTCMITDFFPEDITVEWQWNGQPAENYKNTQPIMDTDGSYFVYSKLNVQKSNWEAGNTFTCSVLHEGLHNHHTEKSLSHSPGK
light: not shown
notes: copies: 2 + 2
Q: With B8 as the binder, how does the “relative mFcγRII-binding activity (mIgG1 = 1)” value [1] read?
A: The value was 0.3 fold.

Q: What about the “relative mFcγRIII-binding activity (mIgG1 = 1)” value [2] of the same binder?
A: The value was 0.04 fold.

B9: H237-MB644/MRAL-k0 (antibody, mouse IgG1, kappa)
heavy: QVQLQESGPGLVKPSETLSLTCAVSGHSISHDHAWSWVRQPPGEGLEWIGFISYSGITNYNPSLQGRVTISRDNSKNTLYLQMNSLRAEDTAVYYCARSLARTTAMDYWGEGTLVTVSSAKTTPPSVYPLAPGSAAQTNSMVTLGCLVKGYFPEPVTVTWNSGSLSSGVHTFPAVLQSDLYTLSSSVTVPSSTWPSETVTCNVAHPASSTKVDKKIVPRDCGCKPCICETYEVEYVFIFPPKPKDVLTITLTPKVTCVVVDISKDDPEVQFSWFVDDVEVHTAQTQPREEQFNSTFRSVSELPIMHQDWLNGKEFKCRVNSAAFPAPIEKTISKTKGRPKAPQVYTIPPPKEQMAKDKVSLTCMITDFFPEDITVEWQWNGQPAENYKNTQPIMDTDGSYFVYSKLNVQKSNWEAGNTFTCSVLHEGLHNHHTEKSLSHSPGK
light: not shown
notes: copies: 2 + 2
Q: What does the source list for B9?
A: relative mFcγRII-binding activity (mIgG1 = 1) [1]: 4.55 fold; relative mFcγRIII-binding activity (mIgG1 = 1) [2]: 0.3 fold

B10: H237-MB649/MRAL-k0 (antibody, mouse IgG1, kappa)
heavy: QVQLQESGPGLVKPSETLSLTCAVSGHSISHDHAWSWVRQPPGEGLEWIGFISYSGITNYNPSLQGRVTISRDNSKNTLYLQMNSLRAEDTAVYYCARSLARTTAMDYWGEGTLVTVSSAKTTPPSVYPLAPGSAAQTNSMVTLGCLVKGYFPEPVTVTWNSGSLSSGVHTFPAVLQSDLYTLSSSVTVPSSTWPSETVTCNVAHPASSTKVDKKIVPRDCGCKPCICQPNEVEYVFIFPPKPKDVLTITLTPKVTCVVVDISKDDPEVQFSWFVDDVEVHTAQTQPREEQFNSTFRSVSELPIMHQDWLNGKEFKCRVNSAAFPAPIEKTISKTKGRPKAPQVYTIPPPKEQMAKDKVSLTCMITDFFPEDITVEWQWNGQPAENYKNTQPIMDTDGSYFVYSKLNVQKSNWEAGNTFTCSVLHEGLHNHHTEKSLSHSPGK
light: not shown
notes: copies: 2 + 2
Q: B10 was tested. Which “relative mFcγRII-binding activity (mIgG1 = 1)” value [1] did it give?
A: Its value is 3.89 fold.

Q: And the “relative mFcγRIII-binding activity (mIgG1 = 1)” value [2]?
A: The value was 0.51 fold.
